According to patent US20170051047A1:
Read-outs that look alike come from different tables or passages of the source.

How the values were obtained:
[1] = target: T1, Clostridium difficile toxin A (whole toxin A) (Clostridium difficile), P16154; conditions: remark: other sources report otherwise
[2] = target: T1, Clostridium difficile toxin A (whole …); conditions: remark: other sources report otherwise; remark: listed apart in the source

B1: CAN20G2 (antibody, V domains shown)
VH: QIQLVQSGPEVKKPGETVKISCKASGYTFTNQGMNWVKQAPGKGLKWMGWINTNTGEPTYTEEFKGRFAFSLETSASTAYLQINNLKNEDTATYFCYVNYDYYTMDFWGQGTSVTVSS
VL: QVVLTQSPAIMSASLGDRVTMTCTASSSVISTYLHWYQQKPGSSPKLWIYSTSTLASGVPPRFSGSGSGTSYSLTISSMEAEDAATYYCLQYHRSPRTFGGGTKLEIK
Kd [1]: 0.166 nM | koff [1]: 1.8e-05 s⁻¹ | kon [1]: 108000 M⁻¹ s⁻¹ | Kd [2]: 0.00419 nM | koff [2]: 4.35e-07 s⁻¹ | kon [2]: 104000 M⁻¹ s⁻¹
